In the RNAGym collection of RNA variant scans (doi:10.1073/pnas.2313332121):

B1: TPR t1 (parent)
chain: GACCAAUCUGCCCUCAGAGCUCGAGAACAUCUUCGGAUGCAGAGGAGGCAGGCUUCGGUGGCGCGAUAGCGCCAACGUCCUCAACCUCCAAUGCAUCCCACCACAUGAUGAUGCCUGAAGAGCCUUGGUUUUUUG

Variants of: B1
Assay: polymerase ribozyme fitness, log enrichment relative to wild type (log ratio); higher = more active; in vitro selection for triplet polymerase activity
How it was run: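 Fitness is a logarithmic measure of how a genotype enriched relative to the wild type, with replicate averages weighted by inverse variance. The logarithm uses base 2, and enrichment came from Illumina sequencing of input and output libraries. Those libraries were PCR-built, transcribed mutants of each subunit of a heterodimeric triplet polymerase ribozyme, passed through one triplicate in vitro selection round that included frozen incubation at −7 °C, gel excision of extended constructs and streptavidin-bead capture. Genotypes were kept only if they had ≥10 input reads and ≥1 read per output.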

Variant	polymerase ribozyme fitness (log ratio)
A29G A37C C102A	-4.8
C28U G117U	-3.99
C28U G117C	-6
A29U C73A A118U	-0.992
A29C U55C C115A U133A	-2.81
A29G A84C C94U U106A G120A U125G	-0.885
A29U C40G G52C G69C A121G U132C	-2.06
C28U G36A G48A	-3.89
C28U G52C G61A U106A U112A	-1.95
A29C G47A G69U	-1.84
C28G G42A A43C G69U U96A C101U C124U	-4.78
C28G C49G G52A G120A	-4.24
A29U A74C	-1.73
A29G G42A G69C	-4.23
C28G G120C	-1.89
A29G G44U A50U G69U	-2.04
A29G G71U	-1.72
C28G C72A C98A G122U	-5.55
C28U G48A	-3.13
C28U G48U	-2.79
A29C G44U C73G C82G U112C C115G	-7.14
A29C C31G G61U C101U A121U C124A	-5.89
A29U C31G C34G G44A G60A C114U	-6.84
C28U G39U G71C C99U G120A	-4.64

Variant	polymerase ribozyme fitness (log ratio)
A29U C56U G120C G127A	-2.48
A29G C104A G117C U131C	-6
C28U C101A U106A	-1.04
A29G C97U C101A A103U G120A U133G	-7
A29G C79U	-1.06
C28G C53U C56U	-2.28
A29C A74U	-2.93
A29G A50C	-1.66
C28U G113U	-4.02
C28U G93U U112C	-1.92
A29G C104U U106G	-1.09
C28G C89A	-4.51
C28U G42U C49G G69U U126G U130A	-6.32
C28U C101U G120U	-3.5
C28U C56G G57C	-2.34
A29U C56U A84G C97U	-3.9
A29U G39A G117A	-2.71
C28G G57C A84U C94U A118U	-2.35
A29G G110A	-2.21
A29G G61A C124A	0.686
C28G G52A C70U C80A G113C	-7.14
C28G C70A A90G G117U	-5.76
A29U C31A G69A C104G G117C A121U	-7.2
A29G C53G C62U U106A G117C	-4.22

Variant	polymerase ribozyme fitness (log ratio)
A29C U130C	-2.27
C28U G63A C88U	-3.69
C28U C40A G71U U112C U126A	-3.58
C28G C56G C86U C124U	-1.07
A29U A50G U81C C114U	-1.72
C28U G52A	-2.18
A29U G44A C101U	-4.87
C28G G57U	-2.76
C28G G57A	-4.66
A29C A75G C124G U129C	-1.16
C28U A43U U59G C73U	-6.04
C28U G47U G93A	-5.35
A29U A66G	-3.28
C28U G71C	-2.78
C28U G71A	-2.58
A29G G39U C94G	-2.78
C28U C89U	-2.51
A29U G44A C72U G110A U125A	-5.47
A29C A50U	-2.67
A29G C40G A74U U81A U92G C115A	-3.87
C28U U59G C86G C89U	-4.05
A29C G36U C73U	-3.91
C28G G69A A121C	-5.9
C28G G60A C79G	-4.94

Variant	polymerase ribozyme fitness (log ratio)
C28G G48C A83G A84U G120C	-2.29
C28G C49U U92A G110A	-5.35
A29U C114U G120C C123U G128C	-4.45
C28G G77U U78A C82U	-3.54
C28U A90U A111U	-5.21
C28G C76U	-3.02
C28U A43U C89G	-5.07
A29C C56G	-3.25
A29G A37U A95C	-3.29
C28U A29U G45C G61A	-3.76
A29U C40U C72G A84C A100C U106A A119U	-3.21
A29U C40U C49A U106A	-1.76
A29G G107A	-5.6
A29G G58C G120U	-1.73
A29G C34A	-4.34
A29G G77U	-1.38
C28U C64A A95G C115A U129C U134A	-4.91
C28U G63A	-3.62
C28U G63U	-3.07
A29C C53G U133G	-4.74
A29U C31G C97G U112A U129G	-6.42
A29G G69A C86A U112A C123G	-3.48
A29G A121U	0.902
A29G G61A	-0.852

Variant	polymerase ribozyme fitness (log ratio)
A29C	-2.15
A29G	-0.987
A29U	-1.67
A29U C49A C64U C82A C97G A121G U133C	-3.41
C28G U59A C104U G113C	-5
C28U G120U	-1.78
C28U G120C	-1.37
C28U A37U	-2.36
A29U G39U A74U A91U U132A	-4.44
C28U G58A	-2.03
A29G U109C	0.997
C28G G39U C53U G63C U78C C124A	-3.85
A29C U54C A84U G120C	-2.27
C28U G45A G63U U78C	-5
A29U C89U	-2.05
C28G U38C G77C A84U U92C G113U U129G	-5.83
A29C G48A A50C	-3.87
A29U C34U	-4.41
A29G C123G	0.246
A29G C123U	-0.36
C28U G69A	-4.67
C28U A43U G48U G52C C86A C101A G117C C124U	-7.22
C28G U32C C101A	-3.79
C28G C124G	-0.979

Variant	polymerase ribozyme fitness (log ratio)
A29C G69U G77U	-2.24
A29U G42C G113U U129A	-4.15
C28U G39A U54C C79A	-4.8
A29G U126A	-2.42
A29U C94A	-1.79
C28U G39C C53U G61U	-2.31
A29U C76A	-1.91
A29U C34U G47U C53U	-6.51
A29C U33C U55A C86A C124A	-6.12
A29G C49U G61A C85U	-1.74
A29U C72G C104U G120C	-0.531
A29U C70G U125G	-3.65
A29C G63U	-3.09
A29C G77U U81C	-4.43
A29G G60C U106A U109C G117A G127A	-5.43
C28U C70G	-4.94
A29G A37C G45C	-3.58
C28U G71U A83U C86G C123G	-2.39
C28U G61U U92C	-2.53
C28U C53G G58C G60C	-3.2
C28U G39A G61U	-2.23
A29G G51U C62U C82G	-4.8
C28U A43G C72G U112G	-5.26
C28U G58C G113C U132C	-4.51

Variant	polymerase ribozyme fitness (log ratio)
A29C U55C C72U C115A U133A	-2.23
A29G A103C U106A	-5.73
C28G G44U A111C G117C	-6.59
C28U G52U C101U	-4.04
A29C A66G G120A	-2.9
A29G A90C	-2.34
C28U G52C U106A U112A	-1.6
A29G C72U G135U	-1.91
A29U C73G	-1.92
C28U G45A G52A U116C	-4.51
A29C U55G G60U A75U	-2.08
A29G U109G C114G	-6.5
C28G G39C C49U G69A	-6.04
A29G A43C G122A	-4.45
A29U G36U U112C	-1.39
C28G C101U	-3.08
C28U A83U C86G C123G	-1.55
C28G C53G U59A C73A C89A U109G A111U G120A	-6.66
A29G C72A G113A G128A	-2.62
A29G G120A	-1.03
C28G G63A A84C A121U	-3.21
A29G C53G U87C G113C	-3.02
A29G A118U G120C	-1.87
